The target in the data set is thrombin (human, UniProt P00734;P00734 328-363;364-622). In words: AuNP aggregation (plasmonic scattering); 16 nM thrombin, 4.59 uM TBA, 0.1 M NaCl, pH 7.4; LoD 0.5 nM (not a Kd).

One molecule from PMC13379383 can be followed below.

B1: TBA (thrombin-binding aptamer) (ssDNA)
DNA: AGTCCGTGGTAGGGCAGGTTGGGGTGACT
modifications: 5'-amine C6 linker
With B1, the binding result was “binds”.
